Experimental data as given in patent US20260146097A1.
Where a chain is given by its changes, count along the chain named. In names and notes the source's numbering stands.

T1: human IL2Rbeta-Avi protein (R&D Systems) (human) (UniProt P14784)
T1 sequence (looked up): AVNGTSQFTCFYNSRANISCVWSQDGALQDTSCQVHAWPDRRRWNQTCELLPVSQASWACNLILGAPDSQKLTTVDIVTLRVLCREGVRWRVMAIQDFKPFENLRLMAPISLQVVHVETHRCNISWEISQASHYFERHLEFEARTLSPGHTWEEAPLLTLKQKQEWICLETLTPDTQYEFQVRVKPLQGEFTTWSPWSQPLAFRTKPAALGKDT

B1: Wild-type anti-IL2Rbeta VH in the multi-specific format (anti-LAG3 and a single anti-IL2Rgamma/anti-IL2Rbeta unit) (protein, part only; not given: rest of multi-specific format, part only)
VH: EVQLVQSGAEVKKPGACVKISCKVSGYTFTDYYMHWVQRAPGKGLEWIGLVDPEDGETIYAEKFQGRVTITADTSTDTAYMELCSLRSEDTAVYYCATDFVKLDFSLSFQHWGQGTLVTVSS
B2: Anti-IL2Rbeta VH modification Y33F in the multi-specific format (protein, part only; not given: Rest of multi-specific format, not shown: another chain or arm of the molecule; a dimerising Fc or GST; large carriers; small tags and cut ends)
VH: B1 VH with Y33F
B3: Anti-IL2Rbeta VH modification Y32F in the multi-specific format (protein, part only; not given: Rest of multi-specific format, not shown: another chain or arm of the molecule; a dimerising Fc or GST; large carriers; small tags and cut ends)
VH: B1 VH with Y32F
B4: Anti-IL2Rbeta VH modification D31Y in the multi-specific format (protein, part only; not given: Rest of multi-specific format, not shown: another chain or arm of the molecule; a dimerising Fc or GST; small tags and cut ends)
VH: B1 VH with D31Y
B5: Anti-IL2Rbeta VH modification D31R in the multi-specific format (protein, part only; not given: Rest of multi-specific format, not shown: another chain or arm of the molecule; a dimerising Fc or GST; small tags and cut ends)
VH: B1 VH with D31R
B6: Anti-IL2Rbeta VH modification E53S in the multi-specific format (protein, part only; not given: Rest of multi-specific format, not shown: another chain or arm of the molecule; a dimerising Fc or GST; large carriers; small tags and cut ends)
VH: B1 VH with E54S
B7: Anti-IL2Rbeta VH modification D31S in the multi-specific format (protein, part only; not given: Rest of multi-specific format, not shown: another chain or arm of the molecule; a dimerising Fc or GST; small tags and cut ends)
VH: B1 VH with D31S
B8: Anti-IL2Rbeta VH modification E53I in the multi-specific format (protein, part only; not given: Rest of multi-specific format, not shown: another chain or arm of the molecule; a dimerising Fc or GST; large carriers; small tags and cut ends)
VH: B1 VH with E54I
B9: Anti-IL2Rbeta VH modification D31K in the multi-specific format (protein, part only; not given: Rest of multi-specific format, not shown: another chain or arm of the molecule; a dimerising Fc or GST; small tags and cut ends)
VH: B1 VH with D31K

target: IL2Rs (IL2Rgamma/IL2Rbeta) on preactivated human PBMCs / CD8+ T cells (human) (UniProt P14784); assay: cell-based or functional assay

Molecule | pSTAT5 EMAX (Mean Fluorescence Intensity) (Mean Fluorescence Intensity)
IgG Control (antibody) | 25000

target: T1, human IL2Rbeta-Avi protein (R&D Systems) (human); assay: ELISA: variant captured by anti-human IgG-Fc, human IL2Rbeta-Avi, streptavidin-HRP

Molecule | EC50
B1 | 0.65 µg/mL
B2 | 0.24 µg/mL
B3 | 0.24 µg/mL
B4 | 0.24 µg/mL
B5 | 0.13 µg/mL
B6 | 0.3 µg/mL
B7 | 0.21 µg/mL
B8 | 0.3 µg/mL
B9 | 0.4 µg/mL
